Reference: patent publication US8785135B2, “Mutant G-protein coupled receptors and methods for selecting them” (Heptares Therapeutics Limited, priority 2007, dated 2014)
Where a chain is given by its changes, count along the chain named. Numbers in names are those of the source.

Experiment: Thermostability of NTR and mutants (3H-neurotensin binding)
Type: physicochemical
Settings: for thermostability, 3H-neurotensin (agonist) binding after the heating step: heated in the absence of the agonist; for thermostability, heated in the presence of 3H-neurotensin: Ligand(+) format; for Tm: neurotensin bound
Method: FIG. 12 Flow chart showing the two different assay formats of ligand (+) and ligand (−) used to determine receptor thermostability.
• 1. 340 site-directed mutants have been made between residues 61-400 of NTR. • 2. Initially, all of these mutants were assayed for thermostability using an assay measuring ^3H-neurotensin (agonist) binding after the heating step. […] Mutants tested for thermostability by heating in the absence of the agonist were re-tested using a slightly different assay where the mutants were heated in the presence of ^3H-neurotensin (Ligand(+) format in FIG. 12). […] All of these also have increased thermostability. • 5. Preferred combinations are • a. Nag7m F358A+A86L+I260A+F342A Tm 51° C. (neurotensin bound) • b. Nag7n F358A+H103A+I260A+F342A Tm 51° C. (neurotensin bound) • Wildtype NTR has a Tm of 35° C. with neurotensin bound.

B1: L205A: NTR point mutant (protein, UniProt P20789 1-424, looked up, variant L205A)
Neurotensin receptor type 1: MHLNSSVPQGTPGEPDAQPFSGPQSEMEATFLALSLSNGSGNTSESDTAGPNSDLDVNTDIYSKVLVTAIYLALFVVGTVGNSVTAFTLARKKSLQSLQSTVHYHLGSLALSDLLILLLAMPVELYNFIWVHHPWAFGDAGCRGYYFLRDACTYATALNVASLSVERYLAICHPFKAKTLMSRSRTKKFISAIWLASALLAIPMAFTMGLQNRSGDGTHPGGLVCTPIVDTATVKVVIQVNTFMSFLFPMLVISILNTVIANKLTVMVHQAAEQGRVCTVGTHNGLEHSTFNMTIEPGRVQALRHGVLVLRAVVIAFVVCWLPYHVRRLMFCYISDEQWTTFLFDFYHYFYMLTNALFYVSSAINPILYNLVSANFRQVFLSTLACLCPGWRHRRKKRPTFSRKPNSMSSNHAFSTSATRETLY
With B1 the “thermostability, 3H-neurotensin (agonist) binding after the heating step” value (“thermostability, 3H-neurotensin” for short) was “small but significant increase in thermostability”.

B2: A69L: NTR point mutant (protein, UniProt P20789 1-424, looked up, variant A69L)
Neurotensin receptor type 1: B1 Neurotensin receptor type 1 with A69L, A205L
With B2 the “thermostability, heated in the presence of 3H-neurotensin” value (from here on “thermostability, heated in the presence”) was “improved thermostability”.

B3: F189A: NTR point mutant (protein, UniProt P20789 1-424, looked up, variant F189A)
Neurotensin receptor type 1: B1 Neurotensin receptor type 1 with F189A, A205L
For B3, the “thermostability, 3H-neurotensin” value was “small but significant increase in thermostability”.

B4: F147A: NTR point mutant (protein, UniProt P20789 1-424, looked up, variant F147A)
Neurotensin receptor type 1: B1 Neurotensin receptor type 1 with F147A, A205L
With B4 the “thermostability, 3H-neurotensin” value was “small but significant increase in thermostability”.

B5: A120L: NTR point mutant (protein, UniProt P20789 1-424, looked up, variant A120L)
Neurotensin receptor type 1: B1 Neurotensin receptor type 1 with A120L, A205L
With B5 the “thermostability, 3H-neurotensin” value was “small but significant increase in thermostability”.

B6: P399A: NTR point mutant (protein, UniProt P20789 1-424, looked up, variant P399A)
Neurotensin receptor type 1: B1 Neurotensin receptor type 1 with A205L, P399A
With B6 the “thermostability, 3H-neurotensin” value was “small but significant increase in thermostability”.

B7: W391A: NTR point mutant (protein, UniProt P20789 1-424, looked up, variant W391A)
Neurotensin receptor type 1: B1 Neurotensin receptor type 1 with A205L, W391A
In the case of B7, the “thermostability, 3H-neurotensin” value is reported as “small but significant increase in thermostability”.

B8: T207A: NTR point mutant (protein, UniProt P20789 1-424, looked up, variant T207A)
Neurotensin receptor type 1: B1 Neurotensin receptor type 1 with A205L, T207A
In the case of B8, the “thermostability, 3H-neurotensin” value is reported as “small but significant increase in thermostability”.

B9: L72A: NTR point mutant (protein, UniProt P20789 1-424, looked up, variant L72A)
Neurotensin receptor type 1: B1 Neurotensin receptor type 1 with L72A, A205L
In the case of B9, the “thermostability, 3H-neurotensin” value is reported as “small but significant increase in thermostability”.

B10: S182A: NTR point mutant (protein, UniProt P20789 1-424, looked up, variant S182A)
Neurotensin receptor type 1: B1 Neurotensin receptor type 1 with S182A, A205L
With B10 the “thermostability, 3H-neurotensin” value was “small but significant increase in thermostability”.

B11: T179A: NTR point mutant (protein, UniProt P20789 1-424, looked up, variant T179A)
Neurotensin receptor type 1: B1 Neurotensin receptor type 1 with T179A, A205L
In the case of B11, the “thermostability, 3H-neurotensin” value is reported as “small but significant increase in thermostability”.

B12: N262A: NTR point mutant (protein, UniProt P20789 1-424, looked up, variant N262A)
Neurotensin receptor type 1: B1 Neurotensin receptor type 1 with A205L, N262A
In the case of B12, the “thermostability, 3H-neurotensin” value is reported as “small but significant increase in thermostability”.

B13: K176A: NTR point mutant (protein, UniProt P20789 1-424, looked up, variant K176A)
Neurotensin receptor type 1: B1 Neurotensin receptor type 1 with K176A, A205L
For B13, the “thermostability, 3H-neurotensin” value was “small but significant increase in thermostability”.

B14: L256A: NTR point mutant (protein, UniProt P20789 1-424, looked up, variant L256A)
Neurotensin receptor type 1: B1 Neurotensin receptor type 1 with A205L, L256A
In the case of B14, the “thermostability, 3H-neurotensin” value is reported as “small but significant increase in thermostability”.

B15: D139A: NTR point mutant (protein, UniProt P20789 1-424, looked up, variant D139A)
Neurotensin receptor type 1: B1 Neurotensin receptor type 1 with D139A, A205L
For B15, the “thermostability, 3H-neurotensin” value was “small but significant increase in thermostability”.

B16: L109A: NTR point mutant (protein, UniProt P20789 1-424, looked up, variant L109A)
Neurotensin receptor type 1: B1 Neurotensin receptor type 1 with L109A, A205L
With B16 the “thermostability, 3H-neurotensin” value was “small but significant increase in thermostability”.

B17: Y351A: NTR point mutant (protein, UniProt P20789 1-424, looked up, variant Y351A)
Neurotensin receptor type 1: B1 Neurotensin receptor type 1 with A205L, Y351A
In the case of B17, the “thermostability, 3H-neurotensin” value is reported as “small but significant increase in thermostability”.

B18: L111A: NTR point mutant (protein, UniProt P20789 1-424, looked up, variant L111A)
Neurotensin receptor type 1: B1 Neurotensin receptor type 1 with L111A, A205L
With B18 the “thermostability, 3H-neurotensin” value was “small but significant increase in thermostability”.

B19: A155L: NTR point mutant (protein, UniProt P20789 1-424, looked up, variant A155L)
Neurotensin receptor type 1: B1 Neurotensin receptor type 1 with A155L, A205L
With B19 the “thermostability, 3H-neurotensin” value was “small but significant increase in thermostability”.

B20: M293A: NTR point mutant (protein, UniProt P20789 1-424, looked up, variant M293A)
Neurotensin receptor type 1: B1 Neurotensin receptor type 1 with A205L, M293A
In the case of B20, the “thermostability, 3H-neurotensin” value is reported as “small but significant increase in thermostability”.

B21: S362A: NTR point mutant (protein, UniProt P20789 1-424, looked up, variant S362A)
Neurotensin receptor type 1: B1 Neurotensin receptor type 1 with A205L, S362A
With B21 the “thermostability, heated in the presence” value was “improved thermostability” and the “thermostability, 3H-neurotensin” value was “small but significant increase in thermostability”.

B22: V268A: NTR point mutant (protein, UniProt P20789 1-424, looked up, variant V268A)
Neurotensin receptor type 1: B1 Neurotensin receptor type 1 with A205L, V268A
With B22 the “thermostability, 3H-neurotensin” value was “small but significant increase in thermostability”.

B23: A90L: NTR point mutant (protein, UniProt P20789 1-424, looked up, variant A90L)
Neurotensin receptor type 1: B1 Neurotensin receptor type 1 with A90L, A205L
With B23 the “thermostability, heated in the presence” value was “improved thermostability” and the “thermostability, 3H-neurotensin” value was “small but significant increase in thermostability”.

B24: S100A: NTR point mutant (protein, UniProt P20789 1-424, looked up, variant S100A)
Neurotensin receptor type 1: B1 Neurotensin receptor type 1 with S100A, A205L
For B24, the “thermostability, 3H-neurotensin” value was “small but significant increase in thermostability”.

B25: Nag7n: NTR mutant F358A+H103A+I260A+F342A (protein)
chain: TSESDTAGPNSDLDVNTDIYSKVLVTAIYLALFVVGTVGNSVTAFTLARKKSLQSLQSTVAYHLGSLALSDLLILLLAMPVELYNFIWVHHPWAFGDAGCRGYYFLRDACTYATALNVASLSVERYLAICHPFKAKTLMSRSRTKKFISAIWLASALLAIPMLFTMGLQNRSGDGTHPGGLVCTPIVDTATVKVVIQVNTFMSFLFPMLVISILNTVAANKLTVMVHQAAEQGRVCTVGTHNGLEHSTFNMTIEPGRVQALRHGVLVLRAVVIAFVVCWLPYHVRRLMFCYISDEQWTTALFDFYHYFYMLTNALAYVSSAINPILYNLVSANFRQVFLSTLACLCPGWRHRRKKRPTFSRKPNSMSSNHAFSTSATRETLY
B25 gave a Tm of 51 °C.

B26: Wildtype NTR: rat neurotensin receptor, parent (protein)
chain: B25 chain with A61H, A218I, A300F, A316F
With B26 the Tm was 35 °C.
